Test: yeast display, Sf9 membrane polyspecificity reagent, FACS + sequencing; frameworks hold sequencing errors
Outline: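 Nanobodies from a synthetic yeast display library (Saccharomyces cerevisiae BJ5465), induced 36–48 hours with galactose, were stained 1 hour at 4 °C with 10% biotinylated, detergent-solubilized Sf9 membrane reagent, enriched on streptavidin microbeads, then FACS-sorted. Anti-HA (expression) and streptavidin (reagent binding) fluorescence set low and high (top ~1%) gates. Polyreactivity labels come from the gate of origin. Genes were colony-PCR amplified, MiSeq 2 × 250 sequenced and filtered by CDR length.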

Row | Sequence | polyreactivity (PSR sort gate)
1 | QVQLVESGGGLVQAGGSLRLSCAASGTFDAYAMGWYRQAPGKERELVASISSSGGSTYYADSVKGRFTISRDNAKNTVYLQMNSLKPEDTAVYYCAATDFWYSGYYWGQGTQVTVSS | low polyreactivity
2 | QVQLVESGGGLVQAGGSLRLSCAASGRIFPYYDMGWYREAPGKERELVAAITWNGGSTYYADSVKGRFTISRDNAKNTVYLQMNSLKPADTAVYYCAVEPYYYGEDYWGQGTQVTVSS | low polyreactivity
3 | QVQLVESGGRLVQAGGRLRLSCAASGSIFLYNARGWYRQAPGKERELVAAINYSGVSTYYADSVKGRFTISRDNAKNTVYLQMNSLKPEDTAVYYCARRWNAFGSKGGYWGQGTQVTVSS | high polyreactivity
4 | QVQLVESGGGLVQAGGSLRLSCAASGFTYRYYAMGWYRQSPGKERELVAAISSGGNTRYADSVKGRFTISRDNAKNTVYLQMTSLKPEDTAVYYCARRPGDWKYVYTGDYWGQGTQVTVSS | high polyreactivity
5 | QVQLVESGGGLVQAGGSRRLSCAASGRTFSKNAMGWYRQAPGKERELVAAISGSGGSTYYADSVKGRFTISRDNAKNSVYLQMNSLKPEDTAVYYCAADGTGFRYLRYDYWGQGTQVTVSS | high polyreactivity
6 | QVQLVESGGGIVQAGCSLRLSCAASGSIFSHNAKVGYRQAPGKERELVAAITKGGGRTYYADSVKGRFTISRDNAKNTVYLQMNSLKPEDNAVYYCATAGAHGRERDYWGQGTQVTVSS | high polyreactivity
7 | QVQLVESGGGLVQAGGSLRLSCAASGRTLWSYVMGWYRQAPGKERELVAAITSGGTTYYADSVKGRFTISRDKAKNTVYLQMNSLKPEDTAVYYCAAGKYYLRLLPYGYWGQGTQVTVSS | high polyreactivity
8 | QVQLVESGGGLVQAGGSLRLSCAASGRTFWYYAMGWYRQAPGKERELVAAISTTGSSTYYADSVKGRFTISRDNAKNTVYLQMNSLKPEDTAVYYCAADSGAQYKYLWGYDYWGQGTQVTVSS | low polyreactivity
9 | QVQLVESGGGLVQAGGSLRLSCAASGFIFGIYAMGWYRQAPGKEREFVAAMTGSAGSTYYADSVKGRFTISRDNAKNTVYLQMNSLKPEDTAVYYCAAVLRTHRYGGYNYWGQGTQVTVSS | low polyreactivity
10 | QVQLVESGGGLVQAGGSLRLSCAASGSIFGGYTKGWYRQAPWKERELVAAISRRGGNTYYADSVKGRFTISRDNAQITVYLQMNSLKPEDTAVYYCAVLWPSARIPVKLDYWGQGTQVTVSS | high polyreactivity
11 | QVQLVESGGGLVQAGGSLRLSCAASGSTFQYYAMGWYRQAPGKERELVAAISSGGRTNYADSVKGRFTISRDNAKNTVYLQMNSLKPEDTAVYYCAARWCYTKGEFDYWGQGTQVTVSS | high polyreactivity
12 | QVQLVESGGGLVQAGGSLRLSCAASGRTVWSNAMGWYRQAPGKEREFVASISRTGVNTYYADSVKGRFTISRDYAKNSVYLQMNSLKPEDTAVYYCNVYSARRGVGTLARYSEYDYWGQGTQVTVSS | high polyreactivity
13 | QVQLVESGGGLVQAGGSLRLSCAASGRTFSSYAMGWYRPAPGKERELVAAITKRAGNTYYADSVKGRFTISRDNAKNTVYLQMNSLKPEDTAVYYCAAGWERFRNYNYWGQGTQVTVSS | high polyreactivity
14 | QVQLVESGGGLVQAGGSLRLSCAASGSTFDYYAMGWYRQTPGKERELVAAISWSGGSTYYADSVKGRFTISRDNAKNTVYLQMNSLKPEDTAVYYCAAATNWGGEYWGQGTQVTVSS | high polyreactivity
15 | QVQLVESGGGLVQAGGSLRLSCAASGSTFYQYAMGWYRQAPGKERELGAAITRSGGSTYYADSVKGRFTISRDNAKNTVYLQMNSLKPEDPAVYYCAADRARRGIRDYYWGQGTQVTVSS | high polyreactivity
16 | QVHLVESGGGLVQAGGSLLLSCAASGFTFRTNAMGWNRQAPGKERELVAVISRRGGSTYYADSVKGRFTISRDNAKNTVYIQMNSLKPEDTAVYYCNAGDGTVGRTYYRSYDYWGQGTQVTVSS | high polyreactivity
17 | QFQLVESGGGLVQAGGSLRLSCAASGSIFSVYTKGRYRQAPGKERELVAAISTGGGSTYYADSVKGRFTISRDNAKNTVYLQMNSLKPEDTALYYCATDYGWAPSYWYDSCGQGTQVTVSS | low polyreactivity
18 | QVQLVESGGGLVQAGGSRRLSCAASGITFSRYAMGWYRQAPGKERELVAAITSSGGSTYYADSVKGRFTISRDNAKNTVYLQMNSLKPEDTAVYYCAATSYYTREQYYYWGQGTQVTVSS | high polyreactivity
19 | QVQLVESAGGLVQAGGSLRLSCAASGIISRWYAMGWYRQAPGKERELVAAITRGGNTYYADSVKGRFTISRDNAKNTVYLQMNSLKPEDTAVYYCAARTPSRYLYFEYDYWGQGTQVTVSS | low polyreactivity
20 | QVQLVESGGGLVQAGGSLRLSCAPSGIFYKYAMGWYRQAPGKERELVAAISISGTSTYYADSVKGRFTISRDNAKNTVYLQMNSLKPEDTAVYYCAADEFYFAPPVAGENYWGQGTQVTVSS | low polyreactivity
21 | QDQHVESGGGLVQAGGSLRLSCAASGITIRTNAIGWYRQAPGKERELVAAITTNGGNTYYADSVKGRFTISRENAKNTVYLQMNSLKQEDTAVYYCNTATYVDSFPDPGDHWGQGTQVTVSS | low polyreactivity
22 | QVQLVESGGGLVQAGGSLRLSCDASGSTFRSYAMGWYRQAHGKERELVASISGRGGSTYYADSVKGRFTISRDNAKNTVYLQMNSLKPEDTAVYYCAKRYRVSYYPYADPYGYWGQGTQVTVSS | low polyreactivity

Row | Sequence | polyreactivity (PSR sort gate)
23 | QVQLVESGGGLVQAGGSLRLSCAASGGTFAFNAMGWYRQAPGKERELVATIRYSGGSTYADSVKGRFTISRDNAKNTVYLQMNSLKPEDTAVYYCAADVIYWFSGEYDYWGQGTQVTVSS | low polyreactivity
24 | QVQLEESRGGLVQAGGSLRLSCAASGYIFSYYDMGWYRQAPGKERELVASITSSGGSTYYADSVKGRFTISRDNGKNTVYLQMNSLKPEDTAVYYCNADVYDTYSPLGYYFWGQGTQVTVSS | low polyreactivity
25 | QVQLVESGGGLVQAGGSLRLSCAASGLIFTGYAMGWYRQAPGKERELVAAITSGGGTNYADSVKGRFTISRDNAKNTVYLQMNSLKPEDTAVYYCAVDFGHYYLYSITSYLWYWDGYDYWGQGTQVTVSS | low polyreactivity
26 | QVQLVESGGGLVQAGGSLRLTCAASGFIFQIYAMGWYRQAPGKERELVAAISSGGSTNYADSVKGRFTISRDNAKNTVYLQMNSLKPEDTAVYYCAAATQYWYFYSFKDKSGFRGYYWGQGTQVTVSS | high polyreactivity
27 | QVPLVESGGGLVQAGGSLRLSCAASGRTFWNYAMGWYRPAPGKERELVAVSRFSDGSTYYADSVKGRFTISRDNAKNTVYLQMNSLKPEDTAVDDGAAKGPRRWGSGFDYWGQGTQVTVSS | low polyreactivity
28 | QVQLVESGGGLVQAGGSLRLSCAASGRIFGAYAMGWYRQAPGKERELVAAITSRGGNTYYADSVKGRFTISRDNAKNTVFLQMNSLKPEDTAVYYCAARHDTRRQYYVGQSAFDYWGQGTQVTVSS | low polyreactivity
29 | QVQLVESGGGVVQAGGSLRLSCAASGSIFYYYAMGWYRQAPGKERELVASITHTGGSTNYADSVKGRFTISRDNAKNTVYLQKNSLKPEDTAVYYCAAEYWNDNYSDPLYDYWGQGTQVTVSS | low polyreactivity
30 | QVQLVESGGGLVQAGGSLRLSCAASGLTFPNNGMGWYRQAPGKERELVAAIRSSGGSTYYADSVKGRFTISRDNAKNTVYLQMNSLKPEDTAVYYCNARRRGGYVGRPRYPVAAYDYWGQGTQVTVSS | low polyreactivity
31 | QVQLVESGGGLVQAGGSLRLSCAASGSSFYYYAMGWYRQAPGKERELVAAITSGDTTNYADSVKGRFTISRDNAKNTVYLQMNSLIPEDTAVYYCAVDLNTTAFYPEAATYLDEYWGQGTQVTVSS | low polyreactivity
32 | QVQLVESGGGLVQAGGSLRLSCAASGSIFNYYAMGWYRQAPGKERELVAGITTSGGSTYYADSVKGRFTISRDNAKNTVYFQMHSLKPEDTAVYYGAAYDYISSTYFLDDYWGQGTQVTVSS | low polyreactivity
33 | QVQLVESGGGLVQAGGSLRLSCAASGRTFWYYTMGWYRQAPGKERELVASITYRGGSTYYADSVKGRFTISRDNAKNTVYLQMNSLKPEDTAVYFCNARYKRYSYDYWGHGTQVTVSS | high polyreactivity
34 | QVQLVESGGGLVQAGGSLRLSCAASGRNIYTNAMGWYRQAPGKERELVAAINRSGGITYYADSVKGRFTISRDNAKNTVDLQMNSLKPEDTAVYYCAKDYSWASYNHDYWGQGTQVTVSS | low polyreactivity
35 | QVQLVESGGGLVQAGGSLRLICAASGRIFGGNAMGWYRQAPGKERELVAPISRSGGSTYYADSVKVRFTISLDNAKNTVYLQMNSLIPEDTAVYYCAAVRRPGTGKYTEYDYWGQGTQVTVSS | high polyreactivity
36 | QVQLVESGGGLVQAGGSLRLSCAASGFTFFPNAKGWYRQAPGKERELVADITDGGSTNYADSVKGRFTISRDNAKNTVYLQMNSLKPEDTAVYYCNADWYGWFGGYEYWGQGTQVTVSS | high polyreactivity
37 | QVQLVESGVGLVQAGGSLRLSCAASGSIFWLYAMGWYRQAPGKERELVAAIDSGDSTKYADSVKGRFTISRDTAKNTVYLQMNSLKPEETAVYYSAKDYYYGLEHYGYWGQGTQVTVSS | low polyreactivity
38 | QVQLVESGGGLVQAGGSLRLSCAASGGTLRYYAMGWYRQAPGKEREFVASISRSGGSTYYADSVKGRFTISRDNAKNTVYLQMNSLKPEDTAVYYCAAYWSPGYTTRRGYWGQGTQVTVSS | high polyreactivity
39 | QDQLVESGGGLVQAGGSLRISCDASGTTFQTYVMGWYRQAPGKERELVAAISSGGSTNYADSVKGRFTISRDNAKNTVYLQMNSLKPEDTAVYYCAKRWPYFRRGKDGYWGQGTQVTVSS | low polyreactivity
40 | QVQLVESGARLVQAGGSLRLSCAASGLIFYGNAMGWYRQAPGKERELVAAISRRGGRTYYADSVKGRFTISRDNAENTVYLQKNSLKPEDTAVYYCAAQYSYPYYKVTLYYWGQGTQVTVSS | high polyreactivity
41 | QVQLVESGGGLVQAGGSLRLSCAASGGTFWYNAMGLYRQAPGKERELVANIRRSGGRTNYADSVKGRFTISRDNAKNTVYLHMNSLKPEDTAVYYCAARVTPYRGFYYWGQGTQVTVSS | high polyreactivity
42 | QVQLVESGGGLVQVGGSLRLSCAASGSNFPANAMGWYRQAPGKEWEFVAAINWSTGTTYYADSVKGRFTISRDNAKNTVYLQMNSLKPEDTAVYYCNASDQAKYDYWGQGTQVTVSS | low polyreactivity
43 | QVQLVESGGGLVQAGGSLRLTCAASGITLGFYAMGWYRQAPGKERELVAAISGRGGSTYYADSVKGRFTISRDNAKNTVYLKMNSLKPEDTPVYYCNALGYYQLVTPFYYWGQGTQVTVSS | high polyreactivity
